B1: chi 5F3: chimeric anti-MUC1 SEA antibody of WO 2021/186427; variable regions SEQ ID NOs: 42 and 43; parent of the humanized antibodies (antibody, V domains shown)
VH: MRVLILLCLFTAFPGVLSDVQVQESGPDLVKPSQSLSLTCTVTGHSITRGSSWHWIRQFPGNKLEWMGYIHYGGGTSYNPSLKSRISITRDTSKNQFFLQLNSVTTEDTATFFCARYSYDITYRWFFDVWGAGTTVIVSS
VL: MVSTPQFLVFLLFWIPASRGDILLTQSPAILSVSPGERVSFSCRASQNIGTSIHWYQQRKNGSPRLLIKYASESISGIPSRFSGSGSGTDFTLSINSVESEDMADYYCQQNNNWPLTFGAGTKLELK
notes: chimeric anti-MUC1 SEA antibody of WO 2021/186427; parent of the humanized antibodies
B2: HM3 LM3: variant of SP66; VH HM3 SEQ ID NO: 9, VL LM3 SEQ ID NO: 14 (antibody, V domains shown)
VH: EIQLVQSGAEVKKPGSSVKVSCKVTGHSITRGSSWHWMRQAPGQGLEWIGYIHYGGGTSYNPSLKSRATLTRDTSTNTAYMELSSLRSEDTAFYFCARYSYDITYRWFFDVWGQGTLVTVSS
VL: DIQMTQSPSTLSASVGDRVTITCRASQNIGTSIHWYQQKPGKAPKLLIKYASESISGVPSRFSGSGSGTEFTLTISSLQPDDFATYYCQQNNNWPLTFGQGTKVEVK
B3: HM3 LM2: variant of SP66; VH HM3 SEQ ID NO: 9, VL LM2 SEQ ID NO: 13 (antibody, V domains shown)
VH: B2 VH
VL: B2 VL with Y50R
B4: HM4 LM2: variant of SP66; VH HM4 SEQ ID NO: 10, VL LM2 SEQ ID NO: 13 (antibody, V domains shown)
VH: B2 VH with A79F
VL: B2 VL with Y50R
B5: HM2 LM3: variant of SP66; VH HM2 SEQ ID NO: 8, VL LM3 SEQ ID NO: 14 (antibody, V domains shown)
VH: B2 VH with A68I, L70I
VL: B2 VL
B6: HM2 LM2: variant of SP66; VH HM2 SEQ ID NO: 8, VL LM2 SEQ ID NO: 13 (antibody, V domains shown)
VH: B2 VH with A68I, L70I
VL: B2 VL with Y50R
B7: HM5 LM3: variant of SP66; VH HM5 SEQ ID NO: 11, VL LM3 SEQ ID NO: 14 (antibody, V domains shown)
VH: B2 VH with A68I, L70I, A79F
VL: B2 VL
B8: HM4 LM3: variant of SP66; VH HM4 SEQ ID NO: 10, VL LM3 SEQ ID NO: 14 (antibody, V domains shown)
VH: B2 VH with A79F
VL: B2 VL
B9: HM5 LM2: variant of SP66; VH HM5 SEQ ID NO: 11, VL LM2 SEQ ID NO: 13 (antibody, V domains shown)
VH: B2 VH with A68I, L70I, A79F
VL: B2 VL with Y50R

Consider nine molecules from US20250041437A1, “HUMANIZED MUC1 ANTIBODY AND ANTIBODY DRUG CONJUGATE” (Sun Pharma Advanced Research Company Limited, priority 2023, published 2025).

Where a chain is given by its changes, count along the chain named.

The target of one assay is T1, recombinant human MUC1-SEA (Homo sapiens, UniProt P15941).
T1 construct: on recombinant human MUC1-SEA on SPR; purchased Acrobiosystems MU1-H52H9
T1 sequence (P15941 1039-1148 limits assumed): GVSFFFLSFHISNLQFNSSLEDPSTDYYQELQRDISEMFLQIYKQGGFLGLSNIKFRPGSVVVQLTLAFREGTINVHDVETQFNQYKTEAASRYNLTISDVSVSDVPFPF
The assay can be described thus: Binding strength by Surface Plasmon Resonance (SPR). To be noted: Table 2, variants of humanized anti-MUC1 5F3 mAb. As for the experimental part:
Binding strength assessment using Surface Plasmon Resonance (SPR): MUC1 antigen (Acrobiosystems, Cat: MU1-H52H9) was captured on the anti-His immobilized on CM5 chip at 5 μl/min flow rate for 60 s. Post this concentration range of 0-50 nM of antibody or ADC is passed over MUC1 antigen at a flow rate of 30 μl/min flow rate for 120 s, keeping dissociation time of 1800 s at 25°. The dose response generated is evaluated on BIAevaluation software for the calculation of affinity of antibody to antigen as measured by dissociation constant (KD).
For the molecule B1, the ka was 4.39e+06 M⁻¹ s⁻¹.
As for B2, the ka turned out to be 4.47e+07 M⁻¹ s⁻¹.
Still for that read-out and setting: next, B3: 2.65e+06 M⁻¹ s⁻¹; B4: 4.08e+06 M⁻¹ s⁻¹.
Regarding B5, the ka came out at 3.14e+06 M⁻¹ s⁻¹.
With B6, the ka came to 1.77e+06 M⁻¹ s⁻¹.
Regarding B7, the ka is 3.97e+06 M⁻¹ s⁻¹.
On to B8, for which the ka came to 2.88e+06 M⁻¹ s⁻¹.
Still for that read-out and setting: next, B9: 4.8e+06 M⁻¹ s⁻¹.

The target of another assay is T2, MUC1-X-FL-1116 (R1108A, E1109A, N1113A, D1116A) (Homo sapiens, UniProt P15941, D1116A/E1109A/N1113A/R1108A).
T2 construct: wild-type MUC1-X extracellular domain (MUC1-X-FL-WT); His (implied by Ni-NTA purification; pET30a(+) vector); made in house; host or cells: E. coli (pET30a(+))
T2 sequence (P15941 24-115 isoform P15941-8 limits assumed): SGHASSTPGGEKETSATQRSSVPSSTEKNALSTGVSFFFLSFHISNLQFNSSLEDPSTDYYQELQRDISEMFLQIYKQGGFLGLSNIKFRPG
T2 sequence (P15941 1098-1158 R1108A/E1109A/N1113A/D1116A limits assumed): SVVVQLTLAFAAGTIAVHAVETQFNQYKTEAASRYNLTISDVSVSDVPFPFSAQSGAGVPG
The assay can be described thus: Epitope mapping ELISA, mutant MUC1-X-FL-1116. The class given is binding. The note with it: mutation at position 1116.
As to B1, the “binding to MUC1 mutant (in words)” value is reported as “maintained”.

A further assay deals with T3, MUC1-X-FL-1118 (R1108A, E1109A, N1113A, E1118A) (Homo sapiens, UniProt P15941, E1109A/E1118A/N1113A/R1108A).
T3 construct: wild-type MUC1-X extracellular domain (MUC1-X-FL-WT); His (implied by Ni-NTA purification; pET30a(+) vector); made in house; host or cells: E. coli (pET30a(+))
T3 sequence (P15941 24-115 isoform P15941-8 limits assumed): T2 sequence (P15941 24-115 isoform P15941-8 limits assumed)
T3 sequence (P15941 1098-1158 R1108A/E1109A/N1113A/E1118A limits assumed): T2 sequence (P15941 1098-1158 R1108A/E1109A/N1113A/D1116A limits assumed) with A19D, E21A
The assay can be described thus: Epitope mapping ELISA, mutant MUC1-X-FL-1118. The class given is binding. To be noted: mutation at position 1118. On the technique in general: In an ELISA, binding on a coated surface is turned into a signal by an enzyme label.
B1: the “binding to MUC1 mutant (in words)” value is “lost”.
